Results published in US20230027540A1.

The substances below were run against IL-12 receptor complex composed of IL-12 receptor β1 (IL-12Rβ1) and IL-12 receptor β2 (IL-12Rβ2) (human) (UniProt P42701) (assay: cell-based or functional assay).
Chain of IL-12 receptor complex composed of IL-12 receptor β1 (IL-12Rβ1) and IL-12 receptor β2 (IL-12Rβ2) (human) (Q99665 24-862, chain 2 of 2, other chains not shown): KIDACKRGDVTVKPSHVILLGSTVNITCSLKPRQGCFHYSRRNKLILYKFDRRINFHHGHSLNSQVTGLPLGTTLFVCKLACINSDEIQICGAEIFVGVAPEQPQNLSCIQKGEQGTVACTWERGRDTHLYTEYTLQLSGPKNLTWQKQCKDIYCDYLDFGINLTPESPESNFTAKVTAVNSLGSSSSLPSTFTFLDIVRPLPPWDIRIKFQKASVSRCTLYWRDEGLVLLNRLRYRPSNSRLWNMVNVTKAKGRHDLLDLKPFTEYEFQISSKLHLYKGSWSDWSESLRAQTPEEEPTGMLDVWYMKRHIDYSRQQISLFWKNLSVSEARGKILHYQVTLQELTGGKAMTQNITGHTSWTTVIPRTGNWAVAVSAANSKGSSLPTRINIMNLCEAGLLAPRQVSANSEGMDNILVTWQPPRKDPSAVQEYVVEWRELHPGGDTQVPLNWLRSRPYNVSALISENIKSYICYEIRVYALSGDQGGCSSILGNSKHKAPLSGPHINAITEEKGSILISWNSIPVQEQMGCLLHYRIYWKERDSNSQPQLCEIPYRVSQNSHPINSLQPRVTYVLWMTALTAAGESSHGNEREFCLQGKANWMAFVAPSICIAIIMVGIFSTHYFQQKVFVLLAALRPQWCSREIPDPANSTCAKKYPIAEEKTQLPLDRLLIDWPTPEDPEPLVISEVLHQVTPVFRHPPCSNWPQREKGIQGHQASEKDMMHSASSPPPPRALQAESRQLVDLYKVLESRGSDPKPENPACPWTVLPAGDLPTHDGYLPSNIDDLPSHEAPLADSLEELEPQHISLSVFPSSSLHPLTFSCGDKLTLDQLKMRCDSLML

| Substance | fold reduction in potency (EC50 of STAT4 phosphorylation) relative to WT IL-12-Fc XENP27201 |
| --- | --- |
| IL-12-Fc fusion comprising IL-12p35(D55Q/N151D) | 2 fold |
| IL-12-Fc fusion comprising IL-12p35(E153Q) | > 2 fold |
| IL-12-Fc fusion comprising IL-12p40(E235Q) | > 2 fold |
